Assay results reported in patent US20190330277A1.

What was measured:
[1] = molecular target: 391-2-DS-Cav1-BZGJ9deleteFS; assay: ELISA, variant from culture supernatant on Ni-NTA plate [continued]
[2] = molecular target: 391-2-DS-Cav1-sc9 100C-362C; assay: ELISA, variant from culture supernatant on Ni-NTA plate
[3] = molecular target: 391-2-DS-Cav1-sc9 99C-362C; assay: as above
[4] = molecular target: RB94 sc9 DS-CAV1 N183GC-N428C L373R Long; assay: as above
[5] = molecular target: 391-2-DS-Cav1-sc9 99C-361C; assay: as above
[6] = molecular target: 391-2-DS-Cav1_ sc9_I28C-G464C; assay: as above
[7] = molecular target: RB94 sc9 DS-CAV1 N183GC-N428C L373R Long K226L; assay: as above
[8] = molecular target: 391-2-DS-Cav1-sc9deleteFS 98C-362C; assay: as above
[9] = molecular target: 391-2 sc9 DS-Cav1 98C-362C; assay: as above
[10] = molecular target: RB94 sc9 DS-CAV1 N183GC-N428C L373R; assay: as above

Work on D25 antibody yielded an ELISA binding value [1] of 0.119, an ELISA binding value [2] of 0.274 and an ELISA binding value [3] of 0.249. It also gave an ELISA binding value [4] of 0.26, an ELISA binding value [5] of 0.225 and an ELISA binding value [6] of 0.202. For the same substance, the ELISA binding value [7] was 0.206, the ELISA binding value [8] was 0.362 and the ELISA binding value [9] was 0.433. For the same substance, the ELISA binding value [10] was 0.187.
